The nature of the series: label from the status in PepcDB records.
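Note: failed if final PepcDB status was selected cloned or expressed and not failed if soluble or beyond.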

Turning to “MVIREALLYIAMLKLEIEALQREYEDLKITKKESLHQFQEVKVEKIGEMFQVKIKSPRGENNLVNILEAFEEMGLNVAQARASCLDSFAMEAIVAPQSKDKLCSVDDLTQTLVKALVKPSVPL”, the protein production entry is listed as “failed”.

Regarding “MVIRVYIASSSGSTAIKKKQQDVLGFLEANKIGFEEKDIAANEENRKWMRENVPENSRPATGYPLPPQIFNESQYRGDYDAFFEARENNAVYAFLGLTAPPGSKEAEV”, the protein production result is recorded as “not failed”.

For “MVKALFSLLFVAFIWGSTFPIQKIVLVGVSPTFYIAVRFFIAALVSYFLFGKGNVKYGSILGTLLGIAYTTQTWGLTITTSTKSGFITSMYIVFVPVFAYLLEREIPTIFQIVSFFAASLGLYMISGGIKDFNFGDFLTLICAVSFALHVVLITMFSKRVKEVDLLFPQFLVVGILNLILNFFWKNWNFTLPALGSAVFTALAATILAIYLQAKYQKALGNNVSAIVFLGEPVFAAVVSYFMLGETMAGKQLLGAALLLISMLFSSLERVKIVRDANQKGRDECEDSL”, the protein production entry was “failed”.

With “MVKCLSAHNKAPHVSVITPSYNSRRFIGETILSVQNQSYENWEMIIVDDCSTDQSAAKIKEIIEGDSRIRLLSLKENVGAAKARNLAIREARGRYIAFLDSDDIWLPHKLKTQLLFMEEMNIAFSYASYSLIDENGNELNREVSVPKSVDYHYLVGNTIIGCLTVMIDREKIPYVEMPSVQPEDTALWLNLLHEGHEAKGIQQVLAKYRIVANSVSSNKVRAAFRYWKLLRDQKSLNAVQSFYYFSKYAYHAYKKNKINVVGKTQLLEHHHHHH”, the protein production result was “failed”.

As for “MVKCMKPGKAVILLQGRYTGKKAVIVKSFDDGTVEKKYGHCLVAGLKKYPSKVIRKDSAKKTAKKSRVKCFFKVINYQHVMPTRYTLDLDLKNVVSADAISSKDKKVTALKEAKAKFEERFKTGKNRWFFTKLRF”, the protein production result was “failed”.

Turning to “MVKIGVCGPVGSGKTALIEALTRHMSKDYDMAVITNDIYTKEDAEFMCKNSVMPRERIIGVETGGCPHTAIREDASMNLEAVEEMHGRFPNLELLLIESGGDNLSATFNPELADFTIFVIDVAEGDKIPRKGGPGITRSDLLVINKIDLAPYVGADLKVMERDSKKMRGEKPFIFTNIRAKEGLDDVIAWIKRNALLED”, the protein production entry was “failed”.

Consider “MVKLDRYIGSSVFMAILAVLGIILGLASLFAFIDEMGAVNETYTVVDVMSYVALTAPRRVYEMLPMAGLIGCLIGLGSLASNSELTIMRAAGVSVGRIVWAVMKPMLVLMLVGVLVGEYVAPATETQAQASRALAQGSGDAQSSKHGLWHRQGDEFIHINAVQPNGLLYGVTRYHFDDQRHMLSSSFARQARFHEDYWQLTDVTTTYFRDGHTEVISVPGERWDVALSPQLLSTVVMAPESLSISGLWGYIHYLADQGLNNGRYWLAFWVKVLQPLVTAALVLMAISFIFGPLRSVTLGQRVFTGVLVGFTFRIAQDLLGPSSLVFGFSPLFAVLVPAGICAVAGVWLLRRAG”, for which the protein production entry is “failed”.

For the sequence “MVKLNSNPSEKGTKPPSVEDGFQTVPLITPLEVNHLQLPAPEKVIVKTRTEYQPEQKNKGKFRVPKIAEFTVTILVSLALAFLACIVFLVVYKAFTYDHSCPEGFVYKHKRCIPASLDAYYSSQDPNSRSRFYTVISHYSVAKQSTARAIGPWLSAAAVIHEPKPPKTQGH”, the protein production result was “failed”.

As to “MVKNGIILGKRYEVISKIGAGGMADVYKGKDHMLNRYVAIKVLKKEFKEDENFVRKFRSEAQAAAGLIHPNVVNVYDVGEDRGLYYMVMELVEGITLKEYIDKKGRLSHKETISIAIQMCTGIGVAHAANIIHRDIKPQNIIISKDGKVKVTDFGIAKATTSNTISSNAMGSVHYTSPEQARGGFSDQKSDIYSIGITLYEMVTGQVPFDGDSTVSVAIKHLQEEITPPSEIVPDIPYSLEQIILKCTQKNGERRYRNTGELIQDLKRSLVDPDGDFVVIPPLGNADTVIITDEELDDIRSSYDDEEEFDEYDEDEYGDEEEFDEYDEDDDEYDEYDDDEEYGGKGKKGKSSDDVNPRMKKVMKILTIVVAIIIVFILVFAIGKAAGIFKGGFGIDTVDTDEKTKVKVPNVVGMTEDEAKKTLNKKGLGFKVVAREESKKYEEGTVSKQKTEAGKRVAKNTTIQVVVSSGLVGDEITVPNVSNMSESEAQKALEDAGFEKITSDFAYSDSVAEGDVIGTTPAANARATKDTEIVMKVSKGSEKKTVPNVVGQQDGDAQNAITAAGLTVGTVTYEYYDDVPKGQVVSQTVAGGKKVAPGTSVGLTISSGPKPPEKVSVPPVTGISIEEARALLDGVGLKADIKYDSETVGTVGQVIKCNPGVGTQVDEGSTVTLIVISKSSQPDGGETESTQ”, the protein production entry is on record as “failed”.

For “MVKSKVKKVEKGKEGEEKRSTYVLLKKVLIPILVFGFAIYAFYLRHLTAGKYFPDPDTFYHFEIYKLVLKEGLPRYYPMSDAPFGSLIGEPLGLYLLPAAFYKVVSLFGYNELQAFLLWPPFVGFLGVIAVYLLGRKVLNEWTGLWGAVVLTVSTANFSRTFSGNARGDGPFMALFIFASVAMLYYLKESNKTRKIIYGTLFVLLTVISLGAWNGSPFGLMVLLGFASLQTIILFIFGKLEELKKFVKEFYPAYLAILAFGYALTFPGIVKIGGFIRFAFEVFLGLIFLLVIMLYGGRYLNYSDKKHRFLVVTIIVLLGFGGAYAYVGPKLFRLMGGAYQSTQVYETVQELAKTTIGDVKAYYGVESGNGLIFFLSIPGLLILLTKYLYDLFKKAKSDNETLFALVFYTMSLYLLYLAVRFLFLASYAVALFFGIFIGFSMDVIEKMKENIGIKAALGIVLSLMILVIPFVHAPVLARSARALKNTEIEVTGWEQALKWLRSNTSKYATATSWWDYGYWIESSLLGNRRASADGGHARDRDHILALFLARDGNISEVDFESWELNYFIIYLNDWAKFNAISYLGGAITRKEYNGDENGRGRVTTILLTQAAGNVYVNPYARIVIKVIQQNKTRRIAVNIGQLECSPILSVAFPGNIKIKGSGRCSDGSPFPYVVYLTPSLGVLAYYKVATSNFVKLAFGIPTSSYSEFAEKLFSNFIPVYQYGSVIVYEFRPFAIYKIEDFINGTWREVGKLSPGKHTLRLYISAFGRDIKNATLYVYALNGTKIIKRIKVGEIKYMNHLEEYPIIVNVTLPTAQKYRFILAQKGPVGVLTGPVRVNGKITNPAYIMREGESGRLELKVGVDKEYTADLYLRATFIYLVRKGGKSNEDYDASFEPHMDTFFITKLKEGIKLRPGENEIVVNAEMPKNAISSYKEKLEKEHGDKLIIRGIRVEPVFIVEKEYTMIEVSASAPHHSSE”, the protein production entry is “failed”.

Consider “MVKTMSEVNFNSKAFTYADNALVQKSASEVLLNLLSIQPEEDVLDIGCGPGHITKKIAKITNGSVQGIDVSQGMIEQAISSNKDLPNLKYSVMDAENLELNTKFDVIVCNSCFQWFQKPDQVLMRCFNVLKEGGRIGIQAPATQSYCPNFISAIEKIRMHPYTREVFNHFKSPWFFFDSKDEYEQLFRNHGFDIIYSELREESNLFSVEQAYKIYQSGAENGYLNQSYYTVTLTDNYISTFRELVKEALQEQADNSGMINLKFERIYLVAKKQ”, for which the protein production entry is “failed”.

Regarding “MVKVPVLRIGKVAAPTGADHALAGSAFPAKNAIADVNPPASPWIDKSVAAQRTEKAGLAAPRSEVTLDFVPPVTRRTPRITFPRRGRSDWTHSLTNSLRMSDTALVAAAVFAGFALNTNGLSLAAESPAFTHHLMTGLILGLVWLGALEVYRTRDPKVLGVGPEEYKRVLSASFRVFGFLGIVAVVFRLDAVSSFVLVSLPLGLVALTGSRWSFRRWLSHEKSRGRCLSRAIVVGEPQDVRYVIKQINRKSGAAYDILGACLPGARRGAVLKVDHLRVPVLSSIYGIAHTVRQTGANAVIVAGPVPGGNQFIQELGWQLEENAAELVLAATLTNVAGPRIHWRPVEGLPLMHVDIPHYSGGKHTLKRLMDITVSASALLILSPILLLLAAIVHHDSPGPVLFRQERVGRRGTTFHMLKFRSMVVDAESRLEELNTRDEGAGVLFKIRGDPRITRCGRWMRKYSLDELPQFWNVLVGNMSLVGPRPPLAREVSGYERHTHRRLLIKPGITGLWQINGRSDLPWDEAVRLDLYYVENWSIAGDLIIMWRTFRAMIQPSGAY”, the protein production result is recorded as “failed”.

Take “MVKYEELLKTLENGINSEEGEIRLVRKSQGRFKEEFNFDLSLGSKPLLTLKVFLGRKPYWQPWVEVFGVNPNLRNVFFGSEAERKLYEFLSEHFGRIFVEYFEDKETTYELQKGVPPALSRLGFELLKLGYTYFRDWYIPEGLMEGGHKIQAEKPKTEEAKKRHLENLKKEFEEFIGKCEDEGLIKKVKERYNFLEHEGSS”: the protein production result was “not failed”.

For “MVLETPVCSPIDKESSSDDVQLNKPPKKKRKLDVVYPPRDNTSSSSDVKPKVPGYCGVKAIGCNRSDELLAEVALHSYNSQTGTNLELMTVTQVMLQSVAHINYHMILDAFDPANNSLSSIEICLWDAAVKNNEKLRLVTTFCSLEGSGDKGSQWDPNGVDVLYTGVMPKWLDDGALSGSEKLHYYEVNDSDLQENKWLHLYAQVGAYSKWDLGMVKHFPLEIKKVVVQTMEDDIESNLKLKSSNAIFYITFTTSGGVECACIIRQTRNGRPQHMCLEINNVEMDK”, the protein production result is “failed”.

“MVLMRYVGKRDLFTVGKYLGTIMQGVGFVVALPVFVAIIYGEGNLQSFIIPAFISLGAGTVLKRYLPEECSVRLKHGMMVACLAWLWAGLIGSLIMISALNIDFTNAFFENMSAWTGSGLTIFSSVESLPKSILFLRSLEQWIGGLGVVIVVIGILIRPGTAASRLYKSEARDERIKPSIANTVKTIWWIYITYTVLGIVLYGLTGMPLFDAINNTLTNLSTGGMSIKNMNIGYYHSAAVYLVTMLLMILGGTSFLVHYQLIKGRFFSVLHDIQLQATVVFISIFTILAVYVGGVAPLESIYHVISALSCTGSSISSTPQMVAWPAYFKVLLITCMLIGMAAGSTTGAVKIIRVITVLKGVYWEIMRILAPEGSVMPRKISGKSVSDTEIREAGSYISLYFVLLFFTWSVLVVYGYDPLNSLFEAASAQGNVGLSMGITSFNLPVVPKMALILSMWLGRLEIIPVIVLIRGLVEAFKAG”: the protein production result is “failed”.

“MVMAPLPPVESLSLRQAIAQMIVVRGAGYLFDYERPYPQWEADQTTLQRWIEAGIGGVILLGGSAAEVAQKTKQLQSWAEIPLLIAADIEEGVGQRFRGATEFPPPMAFGEIWRTDPHQAIALAETMGATTAQEALSLGINWVLAPVLDVNNNPHNPVINIRAFGETPDQVSALGTAFIRGAQQYAVLTTAKHFPGHGDTATDSHLALPTISHDDTRLNTVELPPFKAAIQGGVDAVMNAHLMIPAWDQQYPATLSPAILTGQLRHKLGFKGLIVTDALVMGGITQFAAPDTVVVQAIAAGADILLMPPDVDGAIIAIETAIKTGQLSESRIYESVERIWQAKQKILTATPSTFPQGISGDRPETRKTVAMVLERATKHQKSLVKISSFPDNFARNLIVVDSVLKSPFLRPNCPAIAIPQRHGYAAEIVELKTLPRLQLEAIPTLIQCFLRGNPFTEKLADPIDVLQKIAAQIPLQGVIFYGSPYFLEALQTTLPEIPWWFSYGQMAIAQAEICTSLWEEAPQAAPSAAEFI”: the protein production entry was “not failed”.

Source of the values: a protein production outcome set (Wang et al. 2014).
